Values of other authors as cited in paper PMC10373500.

Biological target: Asp76 (UniProt position 102, GSPGADRVVFN)

Substance: Ribonuclease T1 (RNase T1) (not stated in the article (Aspergillus oryzae from outside knowledge))
- pKa: 0.5
